Source: US20220042033A1, “COMPOSITION AND METHOD FOR CONFERRING AND/OR ENHANCING TOLERANCE AGAINST HERBICIDES BY USING VARIANTS OF PPO” (FarmHannong Co., Ltd., priority 2017, published 2022)

B1: I311M + L332T + M365V: MxPPO (SEQ ID NO: 3) variant (protein)
chain: MHHMPRTTGMNVAVVGGGISGLAVAHHLRSRGTDAVLLESSARLGGAVGTHALAGYLVEQGPNSFLDREPATRALAAALNLEGRIRAADPAAKRRYVYTRGRLRSVPASPPAFLASDILPLGARLRVAGELFSRRAPEGVDESLAAFGRRHLGHRATQVLLDAVQTGIYAGDVEQLSVAATFPMLVKMEREHRSLILGAIRAQKAQRQAALPAGTAPKLSGALSTFDGGLQVLIDALAASLGDAAHVGARVEGLAREDGGWRLIIEEHGRRAELSVAQVVLAAPAHATAKLLRPLDDALAALVAGIAYAPMAVVHLGFDAGTLPAPDGFGFTVPAEEQRRMLGAIHASTTFPFRAEGGRVLYSCVVGGARQPGLVEQDEDALAALAREELKALAGVTARPSFTRVFRWPLGIPQYNLGHLERVAAIDAALQRLPGLHLIGNAYKGVGLNDCIRNAAQLADALVAGNTSHAP
modifications: Synthetic (Protoporphyrinogen IX oxidase (MxPPO) of Myxococcus xanthus)
B2: I168C + M365V: MxPPO (SEQ ID NO: 3) variant (protein)
chain: MHHMPRTTGMNVAVVGGGISGLAVAHHLRSRGTDAVLLESSARLGGAVGTHALAGYLVEQGPNSFLDREPATRALAAALNLEGRIRAADPAAKRRYVYTRGRLRSVPASPPAFLASDILPLGARLRVAGELFSRRAPEGVDESLAAFGRRHLGHRATQVLLDAVQTGCYAGDVEQLSVAATFPMLVKMEREHRSLILGAIRAQKAQRQAALPAGTAPKLSGALSTFDGGLQVLIDALAASLGDAAHVGARVEGLAREDGGWRLIIEEHGRRAELSVAQVVLAAPAHATAKLLRPLDDALAALVAGIAYAPIAVVHLGFDAGTLPAPDGFGFLVPAEEQRRMLGAIHASTTFPFRAEGGRVLYSCVVGGARQPGLVEQDEDALAALAREELKALAGVTARPSFTRVFRWPLGIPQYNLGHLERVAAIDAALQRLPGLHLIGNAYKGVGLNDCIRNAAQLADALVAGNTSHAP
modifications: Synthetic (Protoporphyrinogen IX oxidase (MxPPO) of Myxococcus xanthus)
B3: I168C + A170C + L332T + M365V: MxPPO (SEQ ID NO: 3) variant (protein)
chain: MHHMPRTTGMNVAVVGGGISGLAVAHHLRSRGTDAVLLESSARLGGAVGTHALAGYLVEQGPNSFLDREPATRALAAALNLEGRIRAADPAAKRRYVYTRGRLRSVPASPPAFLASDILPLGARLRVAGELFSRRAPEGVDESLAAFGRRHLGHRATQVLLDAVQTGCYCGDVEQLSVAATFPMLVKMEREHRSLILGAIRAQKAQRQAALPAGTAPKLSGALSTFDGGLQVLIDALAASLGDAAHVGARVEGLAREDGGWRLIIEEHGRRAELSVAQVVLAAPAHATAKLLRPLDDALAALVAGIAYAPIAVVHLGFDAGTLPAPDGFGFTVPAEEQRRMLGAIHASTTFPFRAEGGRVLYSCVVGGARQPGLVEQDEDALAALAREELKALAGVTARPSFTRVFRWPLGIPQYNLGHLERVAAIDAALQRLPGLHLIGNAYKGVGLNDCIRNAAQLADALVAGNTSHAP
modifications: Synthetic (Protoporphyrinogen IX oxidase (MxPPO) of Myxococcus xanthus)
B4: R95A + A170C + L332T + M365I: MxPPO (SEQ ID NO: 3) variant (protein)
chain: MHHMPRTTGMNVAVVGGGISGLAVAHHLRSRGTDAVLLESSARLGGAVGTHALAGYLVEQGPNSFLDREPATRALAAALNLEGRIRAADPAAKRAYVYTRGRLRSVPASPPAFLASDILPLGARLRVAGELFSRRAPEGVDESLAAFGRRHLGHRATQVLLDAVQTGIYCGDVEQLSVAATFPMLVKMEREHRSLILGAIRAQKAQRQAALPAGTAPKLSGALSTFDGGLQVLIDALAASLGDAAHVGARVEGLAREDGGWRLIIEEHGRRAELSVAQVVLAAPAHATAKLLRPLDDALAALVAGIAYAPIAVVHLGFDAGTLPAPDGFGFTVPAEEQRRMLGAIHASTTFPFRAEGGRVLYSCIVGGARQPGLVEQDEDALAALAREELKALAGVTARPSFTRVFRWPLGIPQYNLGHLERVAAIDAALQRLPGLHLIGNAYKGVGLNDCIRNAAQLADALVAGNTSHAP
modifications: Synthetic (Protoporphyrinogen IX oxidase (MxPPO) of Myxococcus xanthus)
B5: I168C + M365I: MxPPO (SEQ ID NO: 3) variant (protein)
chain: MHHMPRTTGMNVAVVGGGISGLAVAHHLRSRGTDAVLLESSARLGGAVGTHALAGYLVEQGPNSFLDREPATRALAAALNLEGRIRAADPAAKRRYVYTRGRLRSVPASPPAFLASDILPLGARLRVAGELFSRRAPEGVDESLAAFGRRHLGHRATQVLLDAVQTGCYAGDVEQLSVAATFPMLVKMEREHRSLILGAIRAQKAQRQAALPAGTAPKLSGALSTFDGGLQVLIDALAASLGDAAHVGARVEGLAREDGGWRLIIEEHGRRAELSVAQVVLAAPAHATAKLLRPLDDALAALVAGIAYAPIAVVHLGFDAGTLPAPDGFGFLVPAEEQRRMLGAIHASTTFPFRAEGGRVLYSCIVGGARQPGLVEQDEDALAALAREELKALAGVTARPSFTRVFRWPLGIPQYNLGHLERVAAIDAALQRLPGLHLIGNAYKGVGLNDCIRNAAQLADALVAGNTSHAP
modifications: Synthetic (Protoporphyrinogen IX oxidase (MxPPO) of Myxococcus xanthus)
B6: I168C + A170C + I311M + M365I: MxPPO (SEQ ID NO: 3) variant (protein)
chain: MHHMPRTTGMNVAVVGGGISGLAVAHHLRSRGTDAVLLESSARLGGAVGTHALAGYLVEQGPNSFLDREPATRALAAALNLEGRIRAADPAAKRRYVYTRGRLRSVPASPPAFLASDILPLGARLRVAGELFSRRAPEGVDESLAAFGRRHLGHRATQVLLDAVQTGCYCGDVEQLSVAATFPMLVKMEREHRSLILGAIRAQKAQRQAALPAGTAPKLSGALSTFDGGLQVLIDALAASLGDAAHVGARVEGLAREDGGWRLIIEEHGRRAELSVAQVVLAAPAHATAKLLRPLDDALAALVAGIAYAPMAVVHLGFDAGTLPAPDGFGFLVPAEEQRRMLGAIHASTTFPFRAEGGRVLYSCIVGGARQPGLVEQDEDALAALAREELKALAGVTARPSFTRVFRWPLGIPQYNLGHLERVAAIDAALQRLPGLHLIGNAYKGVGLNDCIRNAAQLADALVAGNTSHAP
modifications: Synthetic (Protoporphyrinogen IX oxidase (MxPPO) of Myxococcus xanthus)

What was measured:
[1] = test system: MxPPO; assay: Herbicide tolerance test of MxPPO wild type and variants in PPO-deficient E. coli BT3(ΔPPO), growth on herbicide-containing LB agar; type: cell-based, Myxococcus xanthus; details: relative to MxPPO WT
Procedure: Then, the extent of tolerance was evaluated.

[2] = test system: MxPPO; assay: PPO enzyme activity of purified MBP-fused MxPPO wild type and variants; type: biochemical, Myxococcus xanthus; details: PPO enzyme activity of purified MxPPO protein, relative to wild type
[3] = light, up to 400 μM (FIGS. 15-17)
[4] = light, up to 1000 μM (FIGS. 18-20)
[5] = dark, up to 1000 μM (FIGS. 21-22)
[6] = dark, up to 4000 μM (FIGS. 23-24)

| Molecule | Herbicide tolerance, tiafenacil ([1]; light, 2000 μM (FIG. 14)) | Herbicide tolerance, flumioxazin [1, 3] | Herbicide tolerance, sulfentrazone [1, 4] | Activity (%) [2] [%] | Herbicide tolerance, flumioxazin [1, 5] | Herbicide tolerance, sulfentrazone [1, 6] |
| --- | --- | --- | --- | --- | --- | --- |
| B1 | + (1-9 fold higher tolerance) | +++ (100-999 fold higher tolerance) | ++ (10-99 fold higher tolerance) | 55 |  |  |
| B2 |  | + (1-9 fold higher tolerance) | + (1-9 fold higher tolerance) | 42 |  |  |
| B3 |  |  |  | 40 | + (1-9 fold higher tolerance) | ++ (10-99 fold higher tolerance) |
| B4 |  |  |  | 35 | + (1-9 fold higher tolerance) | +++ (100-999 fold higher tolerance) |
| B5 |  | + (1-9 fold higher tolerance) | + (1-9 fold higher tolerance) | 45 |  |  |
| B6 |  |  |  | 44 | + (1-9 fold higher tolerance) | + (1-9 fold higher tolerance) |
